Data published in patent US20210340270A1 (Amgen, published 2021).

Columns and labels:
[1] = molecular target: human and rat Jagged-1 (recombinant purified Notch ligands in the ELISA); assay: direct binding ELISA on recombinant purified Notch ligands
[2] = molecular target: T1, recombinant human Jagged1 extracellular domain (Met 1-Ser 1046), fused with a polyhistidine tag at the … (human, UniProt P78504 34-1046); assay: Octet Red96 BLI; mAb captured on AHC anti-HuFc biosensors, soluble hJagged1 as analyte; mean of 3 experiments
T1 construct: Bought protein; also called hJagged1; soluble recombinant hJagged1; not shown: C-terminal polyhistidine tag
Method: (§1) The affinity of the soluble recombinant hJagged1 was determined in Octet platform (Octet Red96) under the manufactures recommended kinetic measurement settings. Briefly, hJagged1 was diluted 1 to 3 from 150 nM to 0.5 nM in Octet buffer (10 mM Tris base, 150 mM NaCl, 1 mM CaCl2, 0.1 mg/ml BSA, 0.1% Triton X100) and 60 ul of this serial diluted samples were taken in 384 well tilted bottom (TW384) black polypropylene microplate (Forte Bio, Cat #18-0019) (sample plate). 3 ug/ml of anti-hJagged1 mAb 15D11.1 present in 60 ul in sample plate was used and captured on AHC—anti-HuFc (Kinetic) biosensors (cat #18-5060). A sample with buffer alone is used as a control.

[3] = molecular target: T2, Recombinant Human Jagged 1 Fc chimera (R&D Systems Cat #: 1277-M-050) (human, UniProt P78504 32-1046); assay: ELISA, 1 ug/ml ligand coated on the plate, 15D11.1 titrated, absorbance 450 nm; single experiment shown (the text prints only a mean of n = 3)
T2 construct: also called hJAG1 Fc; not shown: Fc part and any linker of the bought chimera not described
Method: 15D11.1 was tested for binding to recombinant purified Notch ligands; human Jagged1 Fc (Recombinant Human Jagged 1 Fc chimera—R&D Systems Cat #: 1277-M-050), human Jagged1 His (Human JAG1/Jagged1 His Tag Sino Biological Cat #: 11648-H08H), rat Jagged1 Fc (Recombinant Rat Jagged 1 Fc chimera—R&D Systems—Cat #: 599-JG-050), human Jagged2 (Recombinant Human Jagged 2 Fc chimera—R&D Systems Cat #: 1726-JG-050), murine Jagged2 (Recombinant Mouse Jagged 2 Fc chimera—R&D Systems Cat #: 4748-JG-050), murine Delta-like 1 (Recombinant Mouse DLL1 His tag—Sino Biological Cat #: 50522-M08H-50), human Deltalike 4 (Recombinant Human DLL4 His tag—R&D Systems—Cat #: 1506-D4-050) and murine Deltalike 4 (Recombinant Mouse DLL4 His tag—R&D Systems—Cat #: 1389-D4-050) using a standard enzyme-linked immunosorbent assay (ELISA). […]
(§2) in PBST buffer (PBT buffer (PBS+0.05% (v/v) Tween 20) with 0.5% (w/v) BSA) were added to the plates and incubated for one hour at room temperature. The plates were then washed with PBST and bound antibodies were detected with peroxidase-conjugated goat anti-human Fab specific IgG (Sigma). TMB substrate (3,3′,5,5′-tetramethylbenzidine) was used and absorbance at 450 nm was read using a standard ELISA plate reader. Absorbance was plotted against concentrations of 15D11.1 in FIGS. 8A and 8B.

[4] = molecular target: T3, Recombinant Mouse DLL1 His tag (Sino Biological Cat #: 50522-M08H-50) (mouse, UniProt Q61483 18-540); assay: ELISA, 1 ug/ml ligand coated on the plate, 15D11.1 titrated, absorbance 450 nm
T3 construct: Bought construct; also called murine Delta-like 1; not shown: His tag
Method: (§3) 15D11.1 was tested for binding to recombinant purified Notch ligands; human Jagged1 Fc (Recombinant Human Jagged 1 Fc chimera—R&D Systems Cat #: 1277-M-050), human Jagged1 His (Human JAG1/Jagged1 His Tag Sino Biological Cat #: 11648-H08H), rat Jagged1 Fc (Recombinant Rat Jagged 1 Fc chimera—R&D Systems—Cat #: 599-JG-050), human Jagged2 (Recombinant Human Jagged 2 Fc chimera—R&D Systems Cat #: 1726-JG-050), murine Jagged2 (Recombinant Mouse Jagged 2 Fc chimera—R&D Systems Cat #: 4748-JG-050), murine Delta-like 1 (Recombinant Mouse DLL1 His tag—Sino Biological Cat #: 50522-M08H-50), human Deltalike 4 (Recombinant Human DLL4 His tag—R&D Systems—Cat #: 1506-D4-050) and murine Deltalike 4 (Recombinant Mouse DLL4 His tag—R&D Systems—Cat #: 1389-D4-050) using a standard enzyme-linked immunosorbent assay (ELISA). 1 ug/ml of Notch ligand protein (as indicated) in PBS, pH7.4, was coated onto ELISA plates (Nunc Maxisorp) at 4° C. overnight. Plates were blocked with Casein blocker in PBS (Pierce) for one hour at room temperature. Serial 2-fold dilutions of 15D11.1
as §2

[5] = molecular target: T4, Recombinant Human Jagged 2 Fc chimera (R&D Systems Cat #: 1726-JG-050) (human, UniProt Q9Y219 27-1080); assay: as above
T4 construct: Bought construct; not shown: Fc part and any linker of the bought chimera not described
Method: as §3, §2

[6] = molecular target: T5, Recombinant Mouse DLL4 His tag (R&D Systems Cat #: 1389-D4-050) (mouse, UniProt Q9JI71 28-525); assay: as above
T5 construct: Bought construct; also called murine Deltalike 4; not shown: His tag
Method: as §3, §2

[7] = molecular target: T6, Recombinant Mouse Jagged 2 Fc chimera (R&D Systems Cat #: 4748-JG-050) (mouse, UniProt Q9QYE5 27-1082); assay: as above
T6 construct: Bought construct; also called murine Jagged2; not shown: Fc part and any linker of the bought chimera not described
Method: as §3, §2

[8] = molecular target: T7, Recombinant Human DLL4 His tag (R&D Systems Cat #: 1506-D4-050) (human, UniProt Q9NR61 27-524); assay: as above
T7 construct: Bought construct; also called human Deltalike 4; not shown: His tag
Method: as §3, §2

[9] = molecular target: T8, Recombinant Rat Jagged 1 Fc chimera (R&D Systems Cat #: 599-JG-050) (rat, UniProt Q63722 32-1046); assay: direct binding ELISA; 1 ug/ml ligand coated, antibody titrated, anti-human Fab-HRP detection (printed as IC50)
T8 construct: Bought construct; also called rJAG1; not shown: Fc part and any linker of the bought chimera not described
Method: as §3, §2

[10] = molecular target: T2, Recombinant Human Jagged 1 Fc chimera …; assay: as above
Method: as §3, §2

[11] = molecular target: T9, Human JAG1/Jagged1 His Tag (Sino Biological Cat #: 11648-H08H) (human, UniProt P78504 34-1046); assay: as above
T9 construct: also called human Jagged1 His; hJAG1 His; not shown: His tag
Method: as §3, §2

[12] = molecular target: T1, recombinant human Jagged1 extracellular …; assay: Octet Red96 BLI; mAb captured on AHC anti-HuFc biosensors, soluble hJagged1 as analyte; mean of 3 experiments (same KD as r8c2, in nM)
Method: as §1

[13] = molecular target: human Jagged-1 expressed on transfected 293 / 293T cells (human, UniProt P78504 34-1218); assay: cell-based or functional assay
[14] = molecular target: murine Jagged-1 stably expressed on 293T cells (mouse, UniProt Q9QXX0 34-1218); assay: cell-based or functional assay
murine Jagged-1 stably expressed on 293T cells, sequence (Q9QXX0 34-1218): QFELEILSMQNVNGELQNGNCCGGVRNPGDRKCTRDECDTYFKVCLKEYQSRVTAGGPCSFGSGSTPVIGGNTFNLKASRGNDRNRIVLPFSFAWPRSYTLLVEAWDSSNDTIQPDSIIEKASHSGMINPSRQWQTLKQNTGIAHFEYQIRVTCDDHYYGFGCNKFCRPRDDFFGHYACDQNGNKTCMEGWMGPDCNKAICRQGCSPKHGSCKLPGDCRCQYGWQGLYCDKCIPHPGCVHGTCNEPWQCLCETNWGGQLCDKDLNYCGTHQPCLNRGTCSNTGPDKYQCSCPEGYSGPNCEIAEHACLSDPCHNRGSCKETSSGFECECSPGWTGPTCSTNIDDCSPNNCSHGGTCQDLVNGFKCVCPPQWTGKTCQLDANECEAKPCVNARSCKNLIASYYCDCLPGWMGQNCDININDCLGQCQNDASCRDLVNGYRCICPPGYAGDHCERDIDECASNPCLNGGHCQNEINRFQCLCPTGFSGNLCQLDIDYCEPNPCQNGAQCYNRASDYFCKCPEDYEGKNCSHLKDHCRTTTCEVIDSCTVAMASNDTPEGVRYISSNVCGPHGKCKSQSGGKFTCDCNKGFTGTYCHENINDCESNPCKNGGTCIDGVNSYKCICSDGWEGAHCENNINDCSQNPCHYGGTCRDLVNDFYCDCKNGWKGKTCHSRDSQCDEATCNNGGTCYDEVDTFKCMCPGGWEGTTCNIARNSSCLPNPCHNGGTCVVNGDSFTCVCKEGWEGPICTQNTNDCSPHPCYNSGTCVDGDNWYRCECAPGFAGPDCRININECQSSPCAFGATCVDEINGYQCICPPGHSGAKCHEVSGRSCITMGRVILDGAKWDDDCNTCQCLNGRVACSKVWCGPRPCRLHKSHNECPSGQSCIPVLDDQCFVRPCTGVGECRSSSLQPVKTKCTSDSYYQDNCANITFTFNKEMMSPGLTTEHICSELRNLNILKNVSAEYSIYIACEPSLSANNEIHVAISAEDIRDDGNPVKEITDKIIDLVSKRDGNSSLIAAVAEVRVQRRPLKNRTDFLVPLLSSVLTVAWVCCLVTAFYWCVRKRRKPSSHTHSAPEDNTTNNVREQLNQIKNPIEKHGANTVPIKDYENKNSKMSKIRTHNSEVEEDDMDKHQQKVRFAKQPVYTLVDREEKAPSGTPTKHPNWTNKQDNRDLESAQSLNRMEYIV

human Jagged-1 expressed on transfected 293 / 293T cells, sequence (P78504 34-1218 P227R/N498D limits assumed): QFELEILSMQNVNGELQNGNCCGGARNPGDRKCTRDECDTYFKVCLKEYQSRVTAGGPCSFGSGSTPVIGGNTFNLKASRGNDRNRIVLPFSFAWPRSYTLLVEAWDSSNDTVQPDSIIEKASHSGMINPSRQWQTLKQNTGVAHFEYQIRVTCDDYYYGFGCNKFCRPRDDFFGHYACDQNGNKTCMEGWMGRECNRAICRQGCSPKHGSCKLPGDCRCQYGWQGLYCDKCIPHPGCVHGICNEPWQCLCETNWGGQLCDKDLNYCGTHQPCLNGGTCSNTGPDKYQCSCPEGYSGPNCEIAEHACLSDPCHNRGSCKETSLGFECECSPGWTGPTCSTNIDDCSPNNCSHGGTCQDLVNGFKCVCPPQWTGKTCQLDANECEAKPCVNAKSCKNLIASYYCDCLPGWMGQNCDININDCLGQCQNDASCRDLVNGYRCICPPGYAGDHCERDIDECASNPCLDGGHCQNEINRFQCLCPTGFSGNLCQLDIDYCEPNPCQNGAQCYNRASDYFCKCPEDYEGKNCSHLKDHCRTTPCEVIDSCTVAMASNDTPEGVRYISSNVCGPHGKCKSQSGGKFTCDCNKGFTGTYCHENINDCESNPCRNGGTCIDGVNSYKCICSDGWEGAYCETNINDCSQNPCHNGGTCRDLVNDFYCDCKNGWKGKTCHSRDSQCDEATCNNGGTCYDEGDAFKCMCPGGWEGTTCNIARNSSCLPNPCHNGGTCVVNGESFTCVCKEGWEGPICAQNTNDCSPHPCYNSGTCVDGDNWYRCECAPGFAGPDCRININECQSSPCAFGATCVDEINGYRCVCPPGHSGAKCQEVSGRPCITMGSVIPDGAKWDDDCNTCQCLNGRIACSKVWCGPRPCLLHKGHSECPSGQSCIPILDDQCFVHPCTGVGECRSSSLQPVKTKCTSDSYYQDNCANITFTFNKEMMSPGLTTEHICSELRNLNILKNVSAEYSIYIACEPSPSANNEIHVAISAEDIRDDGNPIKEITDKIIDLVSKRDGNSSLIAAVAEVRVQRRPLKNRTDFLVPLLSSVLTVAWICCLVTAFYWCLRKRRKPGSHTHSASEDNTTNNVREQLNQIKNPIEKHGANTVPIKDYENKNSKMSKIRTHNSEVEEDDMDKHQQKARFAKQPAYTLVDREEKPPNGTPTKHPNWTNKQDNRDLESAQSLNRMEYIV
T6 sequence (Q9QYE5 27-1082, change not shown): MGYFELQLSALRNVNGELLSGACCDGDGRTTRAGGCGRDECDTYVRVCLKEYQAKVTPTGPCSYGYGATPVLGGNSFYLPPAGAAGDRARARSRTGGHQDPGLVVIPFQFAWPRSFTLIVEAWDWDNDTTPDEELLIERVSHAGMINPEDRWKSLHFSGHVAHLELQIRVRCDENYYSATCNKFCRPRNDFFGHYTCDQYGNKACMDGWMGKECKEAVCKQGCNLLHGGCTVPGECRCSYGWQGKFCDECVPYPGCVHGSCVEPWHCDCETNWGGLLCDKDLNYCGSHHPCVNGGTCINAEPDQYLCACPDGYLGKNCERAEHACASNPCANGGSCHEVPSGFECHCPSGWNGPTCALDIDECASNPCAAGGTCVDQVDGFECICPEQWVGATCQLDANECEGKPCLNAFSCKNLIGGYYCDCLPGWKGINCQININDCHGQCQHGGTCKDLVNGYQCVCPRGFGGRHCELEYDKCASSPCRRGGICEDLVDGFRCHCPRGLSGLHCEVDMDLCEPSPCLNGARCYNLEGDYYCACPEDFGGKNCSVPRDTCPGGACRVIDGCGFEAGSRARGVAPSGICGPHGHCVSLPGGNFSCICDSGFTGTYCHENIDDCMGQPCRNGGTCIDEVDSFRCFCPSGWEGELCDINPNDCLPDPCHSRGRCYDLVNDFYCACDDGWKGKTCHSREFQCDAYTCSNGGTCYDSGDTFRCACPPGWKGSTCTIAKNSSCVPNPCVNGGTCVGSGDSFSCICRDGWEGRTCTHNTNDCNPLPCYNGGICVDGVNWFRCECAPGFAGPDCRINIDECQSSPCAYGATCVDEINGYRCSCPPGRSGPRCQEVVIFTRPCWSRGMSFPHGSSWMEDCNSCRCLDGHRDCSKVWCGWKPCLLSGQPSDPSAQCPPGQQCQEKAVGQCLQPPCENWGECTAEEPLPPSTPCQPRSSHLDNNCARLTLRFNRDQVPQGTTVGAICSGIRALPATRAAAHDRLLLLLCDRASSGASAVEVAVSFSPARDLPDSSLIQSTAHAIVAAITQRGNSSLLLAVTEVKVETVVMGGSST
T3 sequence (Q61483 18-540 limits assumed, stated change not applied): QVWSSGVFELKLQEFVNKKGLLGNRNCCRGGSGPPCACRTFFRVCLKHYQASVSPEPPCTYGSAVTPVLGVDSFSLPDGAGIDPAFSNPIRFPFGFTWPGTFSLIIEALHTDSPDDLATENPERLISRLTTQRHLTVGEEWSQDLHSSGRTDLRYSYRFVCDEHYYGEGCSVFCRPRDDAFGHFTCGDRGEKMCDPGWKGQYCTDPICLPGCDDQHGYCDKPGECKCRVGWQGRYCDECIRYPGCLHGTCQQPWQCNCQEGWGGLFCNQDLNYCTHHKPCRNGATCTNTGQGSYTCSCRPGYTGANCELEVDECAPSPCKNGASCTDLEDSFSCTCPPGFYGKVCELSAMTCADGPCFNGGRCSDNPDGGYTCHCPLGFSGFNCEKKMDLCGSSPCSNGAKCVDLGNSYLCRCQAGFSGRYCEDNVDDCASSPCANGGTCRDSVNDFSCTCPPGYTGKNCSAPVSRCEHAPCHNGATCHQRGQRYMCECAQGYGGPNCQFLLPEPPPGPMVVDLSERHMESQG
T4 sequence (Q9Y219 27-1080, change not shown): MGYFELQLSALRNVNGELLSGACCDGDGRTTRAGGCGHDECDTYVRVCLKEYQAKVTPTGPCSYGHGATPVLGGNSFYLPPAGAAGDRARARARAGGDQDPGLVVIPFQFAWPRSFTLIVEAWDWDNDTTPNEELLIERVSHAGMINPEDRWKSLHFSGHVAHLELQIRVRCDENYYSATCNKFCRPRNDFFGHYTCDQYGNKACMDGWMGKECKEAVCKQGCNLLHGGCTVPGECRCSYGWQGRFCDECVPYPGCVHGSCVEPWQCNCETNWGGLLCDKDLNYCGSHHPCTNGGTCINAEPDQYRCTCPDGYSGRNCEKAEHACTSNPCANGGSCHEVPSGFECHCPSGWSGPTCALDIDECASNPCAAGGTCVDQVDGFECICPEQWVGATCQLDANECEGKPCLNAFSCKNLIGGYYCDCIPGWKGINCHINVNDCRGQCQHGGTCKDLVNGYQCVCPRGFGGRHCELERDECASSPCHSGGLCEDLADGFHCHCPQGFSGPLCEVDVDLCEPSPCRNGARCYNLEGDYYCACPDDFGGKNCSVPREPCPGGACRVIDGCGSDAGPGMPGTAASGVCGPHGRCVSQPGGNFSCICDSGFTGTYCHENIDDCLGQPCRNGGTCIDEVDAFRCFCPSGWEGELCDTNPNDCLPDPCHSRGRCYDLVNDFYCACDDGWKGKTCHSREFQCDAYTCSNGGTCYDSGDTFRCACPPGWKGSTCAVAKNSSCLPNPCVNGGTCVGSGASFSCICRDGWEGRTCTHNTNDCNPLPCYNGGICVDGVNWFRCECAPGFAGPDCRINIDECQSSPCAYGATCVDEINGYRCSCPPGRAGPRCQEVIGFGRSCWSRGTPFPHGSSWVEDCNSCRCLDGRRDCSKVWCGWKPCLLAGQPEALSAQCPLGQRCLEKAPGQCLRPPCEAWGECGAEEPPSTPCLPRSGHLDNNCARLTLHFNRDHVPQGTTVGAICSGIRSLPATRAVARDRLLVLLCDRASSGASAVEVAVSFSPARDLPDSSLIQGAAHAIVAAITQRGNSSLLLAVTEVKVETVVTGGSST

B1: anti-hJagged1 mAb 15D11.1 (antibody, V domains shown)
VH: QVTLKESGPVLVKPTETLTLTCTVSGFSLSNAEMGVSWIRQPPGKALEWLAHLFSNDEKSYSTSLKSRLTISKDTSKSQVVLTMTDLDPVDTATYYCARSFNWNYDFDYWGQGTLVTVSS
VL: QSALTQPASVSGSPGQSITISCTGTSSAVGGHNFVSWYQQYPGKAPKLMIYEVSNRPSGVSTRFSGSKSGNTASLTISGLQAEDEADYYCSSYTSSSTWVFGGGTRLTVL
notes: Fully human monoclonal antibody from XenoMouse (XMG2-KL / XMG4-KL) hybridomas; also called iPS:480499; anti-Jag-1 15D11.1
Question: With B1 as the binder, how does the IC50 [1] read?
Answer: The IC50 was 0.3 to 0.9 nM.

Question: What about the koff [2] of the same binder?
Answer: Its koff is 0.000189 s⁻¹.

Question: And the kon [2]?
Answer: The kon was 331000 M⁻¹ s⁻¹.

Question: And the “EC50 (read off the curve)” value [3]?
Answer: The value was about 0.4 nM.

Question: Does B1 bind [4]?
Answer: Result: no binding (tested: about log 1.8 nM (about 60 nM))

Question: Does B1 bind [5]?
Answer: Result: no binding (tested: about log 1.8 nM (about 60 nM))

Question: Does B1 bind [6]?
Answer: Result: no binding (tested: about log 1.8 nM (about 60 nM))

Question: Does B1 bind [7]?
Answer: Result: no binding (tested: about log 1.8 nM (about 60 nM))

Question: Does B1 bind [8]?
Answer: Result: no binding (tested: about log 1.8 nM (about 60 nM))

Question: What about the IC50 [9] of the same binder?
Answer: Its IC50 is 0.51 nM.

Question: What about the IC50 [10] of the same binder?
Answer: Its IC50 is 0.8 nM.

Question: What about the IC50 [11] of the same binder?
Answer: The IC50 was 0.39 nM.

Question: What about the Kd [12] of the same binder?
Answer: Its Kd is 0.61 nM.

Question: What about the “IC50, human Jagged-1 induced human Notch2 activation co-culture assay (12xCSL firefly luciferase reporter in SK-MEL-28 cells)” value [13] of the same binder?
Answer: Its value is 1.69 nM.

Question: What about the “avg IC50, human Jagged-1 induced human Notch2 activation co-culture assay (12xCSL firefly luciferase reporter in SK-MEL-28 cells)” value [13] of the same binder?
Answer: Its value is 2.31 nM.

Question: And the “IC50, murine Jagged-1 induced murine Notch1 activation co-culture assay (7xCSL firefly luciferase reporter in 293T/murine Notch1 cells)” value [14]?
Answer: The value was 7.72 nM.

Question: And the “avg IC50, murine Jagged-1 induced murine Notch1 activation co-culture assay (7xCSL firefly luciferase reporter in 293T/murine Notch1 cells)” value [14]?
Answer: Its value is 9 nM.
